Source: the supplement of paper PMC10567573
± gives the standard deviation.

Experiment: protein stability index of a GFP-peptide fusion (GPS, HEK-293T) (PSI 1-6); higher = more stable
[1] = treatment: DMSO, c terminus: a fixed tail appended
[2] = treatment: MLN4924 1 uM, 8 h, c terminus: a fixed tail appended
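Further: 24-mer peptide tiles fused after GFP, lentivirally expressed, FACS-sorted into six equal bins by GFP/DsRed ratio, decoded by Illumina sequencing, PSI is the read-weighted mean bin number.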

| Sequence | protein stability index [1] | protein stability index [2] | protein stability index (treatment: DMSO, c terminus: native) | protein stability index (treatment: MLN4924 1 uM, 8 h, c terminus: native) |
| --- | --- | --- | --- | --- |
| RVVCGIDSSMILTVPGQALACGSN [NEK8] | 2.73 ± 0.12 | 2.52 ± 0.29 | – | – |
| SKLDTTKALNLLPANTQINDIRIF [VPS39] | 2.55 ± 0.33 | 2.66 ± 0.31 | – | – |
| WRFVLQRLVFLAAFVVYLETETLV [TSN] | 2.68 ± 0.54 | 3.66 ± 0.17 | – | – |
| CQVEVRLLLAYNSSARIPKCPWME [INTS4] | 3.21 ± 0.91 | 3.1 ± 0.25 | – | – |
| HDIDCQWVDITDVPPGDYLFQVVI [LOXL2] | 3.01 ± 0.2 | 2.92 ± 0.41 | – | – |
| DIELDAARGDAVCTACGSVLEDNI [BRF1] | 4.88 ± 0.15 | 5.01 ± 0.37 | – | – |
| KTIKRPFGVKYNPYTRSIQILKDT [TPH1] | 2.35 ± 0.2 | 2.19 ± 0.22 | – | – |
| KAKHFKCHICHKKLYTGPGLAIHC [ZNF207] | 2.33 ± 0.23 | 2.62 ± 0.76 | – | – |
| VWSCEGCKAFFKRSIQGHNDYICP [ESR2] | 2.32 ± 0.16 | 2.15 ± 0.11 | – | – |
| GYGGGLGAGFGGGLGAGFGGGFAG [KRT16] | 2.65 ± 0.38 | 2.47 ± 0.28 | – | – |
| FRNPMMSKLRNYRKDLAKLHREVR [VTI1B] | 2.37 ± 0.36 | 2.46 ± 0.24 | – | – |
| SGYAGELGFRAFSGSGNRLDGKKK [UFD1] | 4.89 ± 0.069 | 4.74 ± 0.26 | – | – |
| EGGWWKAISLSTGRESYIPGICVA [SLA] | 2.03 ± 0.91 | 2.05 ± 0.52 | – | – |
| KGKDNKHPMYRRLVHSAVDVPTIQ [ZMYND11] | 3.71 ± 0.18 | 3.71 ± 0.28 | – | – |
| AGGAPGSPIPSPPGPGDDLCSDLE [HES6] | 5.51 ± 0.45 | 5.34 ± 0.4 | – | – |
| GRRVNAKMPVYSGSRPACQLQVPT [ELOA2] | 3.11 ± 0.32 | 3.49 ± 0.44 | – | – |
| SLQMSSAEMPHTETVSPLPSSMDL [NANOGP8] | 4.93 ± 0.15 | 4.94 ± 0.14 | – | – |
| ADGDGGGGQCCRRQDSPSPDFYKQ [PCDHGC5] | 4.67 ± 0.25 | 4.44 ± 0.4 | – | – |
| FASLRPSEPFLTPYLLGPDKNLTE [SLC19A2] | 2.59 ± 0.48 | 3.17 ± 0.62 | – | – |
| FEPRLLVQSIELQRPRFITSGGSN [VPS39] | 2.88 ± 0.3 | 2.9 ± 0.21 | – | – |
| NLDTEELCEYFSQHLGEYENVLAA [NECAB1] | 2.83 ± 0.32 | 3.3 ± 0.66 | – | – |
| DLESQVESLREELICLKKNHEEEV [KRT34] | 4.86 ± 0.24 | 5.13 ± 0.16 | – | – |
| LTVVCAAGAEPLPRNGDQWHEIRQ [WEE1] | 2.55 ± 0.34 | 2.49 ± 0.4 | – | – |

| Sequence | protein stability index [1] | protein stability index [2] | protein stability index (treatment: DMSO, c terminus: native) | protein stability index (treatment: MLN4924 1 uM, 8 h, c terminus: native) |
| --- | --- | --- | --- | --- |
| TEKQNFLLFDMTTHPVTNTTEKQR [GOLPH3L] | 4.31 ± 0.18 | 4.4 ± 0.32 | – | – |
| DREVDAATSATSHTRSLNSIIHQM [FBF1] | 4.09 ± 0.15 | 4.21 ± 0.28 | – | – |
| AFHINKGLVKKYMNSLLIGELSPE [FADS1] | 2.45 ± 0.47 | 2.32 ± 0.26 | – | – |
| DLLSCSNFAVQHRYLFEEDNLLRS [MATN2] | 2.42 ± 0.18 | 2.43 ± 0.47 | – | – |
| TIVFLDKEVFASRISNPSDDNSCE [PCMTD2] | 3.8 ± 0.4 | 3.83 ± 0.21 | – | – |
| FAEKGELRKSIFSESRKPTVSIME [TRIM29] | 2.37 ± 0.6 | 3.09 ± 0.59 | – | – |
| GEDRAGPQSPSPGAPPAAKPARG [TSPAN10] | – | – | 5.32 ± 0.27 | 5.13 ± 0.12 |
| TAQVQKDARIGEAEAKRDAGIREA [FLOT1] | 5.34 ± 0.16 | 5.31 ± 0.19 | – | – |
| GPSTPSPVAAQFTSEGTTLSGVDL [FCHO1] | 5.2 ± 0.4 | 4.96 ± 0.53 | – | – |
| HAQTFVALCATDVKFISNPPSMVA [CCND1] | 2.11 ± 0.29 | 2.08 ± 0.46 | – | – |
| AGREVFDYSHRQKEQDVEKELRDG [NFE2L1] | 4.99 ± 0.25 | 5.53 ± 0.52 | – | – |
| FCVALSDYDLVLAEDEEMNRMHES [GNAI1] | 3.52 ± 0.41 | 3.43 ± 0.28 | – | – |
| QTMAGSSPNTPQPVPEQSALCQGL [FAM104A] | 4.75 ± 0.19 | 4.84 ± 0.17 | – | – |
| SDDEMELEETEPPLEPEDALSDAE [P3H4] | 5.5 ± 0.27 | 5.59 ± 0.24 | – | – |
| IRVQGREFRAHRAVLAASSPYFHD [ZBTB22] | 2.55 ± 0.21 | 2.41 ± 0.16 | – | – |
| LSTDMVHAASDPSSSSGRLSEPDP [SMOC2] | 5.29 ± 0.24 | 5.38 ± 0.15 | – | – |
| QLIDPDENKENEAFEFKKPVRPVS [CDC25A] | 3.59 ± 0.41 | 4.03 ± 0.27 | – | – |
| ESALIALDSEKPKKLRFHPKQLYF [EHMT1] | 2.38 ± 0.48 | 2.54 ± 0.19 | – | – |
| DMKYGIYAVENEHMNRLQSQRAML [VTI1B] | 2.72 ± 0.25 | 2.93 ± 0.31 | – | – |
| PSRYAAIYNGGVEAVSTLLGAVAV [SLC19A2] | 2.28 ± 0.15 | 2.06 ± 0.37 | – | – |
| ALIETSYVKVLHHMVKISGGPRIS [MAGEA6] | 2.93 ± 0.41 | 2.88 ± 0.51 | – | – |
| GRCATRAFHRKSHSLDLNISEKLT [RNF180] | 3.73 ± 0.43 | 3.63 ± 0.42 | – | – |
